In US20240293565A1 (BEIJING SINOTAU BIO PHARMACEUTICALS TECHNOLOGY, published 2024):

B1: ch3F8-MMAE (antibody, V domains shown)
VH: DVQLQESGPGLVKPSQSLSLTCSVTGYSITSAYYWNWIRQFPGDKLEWMGYISYDGRNNFNPSLKNRISITRDTSKNQFFLKLNSVTSGDTATYYCARDGDYDYFDYWGQGTTLTVSS
VL: DIQMTQTTSSLSASLGDRVTISCRASQDISNYLNWYQQKPDGTFKLLIYYTSILHSGVPSRFSGSGSGTDYSLTISNLEQEDIATYFCQQGDTLPPTFGAGTKLELK
modifications: MC-VC-MMAE conjugated to cysteine residues of the antibody after reduction of disulfide bonds (positions not stated), DAR around 3.8
B2: chimeric 3F8 (antibody, human IgG1, V domains shown)
VH: B1 VH
VL: B1 VL
notes: also called ch3F8; Ch3F8

Experiments:
[1] = target: T1, human HER3 on the cell surface (human, UniProt P21860 20-1342); assay: cell-based or functional assay
[2] = target: T1, human HER3 on the cell surface; assay: flow cytometry on SP2/0-HER3 cells
Description: ch3F8-MMAE maintains the similar binding affinity to ch3F8. ch3F8-MMAE binding affinity with HER3 was measured with SP2/0-HER3 by FACS.

T1 sequence (P21860 20-1342): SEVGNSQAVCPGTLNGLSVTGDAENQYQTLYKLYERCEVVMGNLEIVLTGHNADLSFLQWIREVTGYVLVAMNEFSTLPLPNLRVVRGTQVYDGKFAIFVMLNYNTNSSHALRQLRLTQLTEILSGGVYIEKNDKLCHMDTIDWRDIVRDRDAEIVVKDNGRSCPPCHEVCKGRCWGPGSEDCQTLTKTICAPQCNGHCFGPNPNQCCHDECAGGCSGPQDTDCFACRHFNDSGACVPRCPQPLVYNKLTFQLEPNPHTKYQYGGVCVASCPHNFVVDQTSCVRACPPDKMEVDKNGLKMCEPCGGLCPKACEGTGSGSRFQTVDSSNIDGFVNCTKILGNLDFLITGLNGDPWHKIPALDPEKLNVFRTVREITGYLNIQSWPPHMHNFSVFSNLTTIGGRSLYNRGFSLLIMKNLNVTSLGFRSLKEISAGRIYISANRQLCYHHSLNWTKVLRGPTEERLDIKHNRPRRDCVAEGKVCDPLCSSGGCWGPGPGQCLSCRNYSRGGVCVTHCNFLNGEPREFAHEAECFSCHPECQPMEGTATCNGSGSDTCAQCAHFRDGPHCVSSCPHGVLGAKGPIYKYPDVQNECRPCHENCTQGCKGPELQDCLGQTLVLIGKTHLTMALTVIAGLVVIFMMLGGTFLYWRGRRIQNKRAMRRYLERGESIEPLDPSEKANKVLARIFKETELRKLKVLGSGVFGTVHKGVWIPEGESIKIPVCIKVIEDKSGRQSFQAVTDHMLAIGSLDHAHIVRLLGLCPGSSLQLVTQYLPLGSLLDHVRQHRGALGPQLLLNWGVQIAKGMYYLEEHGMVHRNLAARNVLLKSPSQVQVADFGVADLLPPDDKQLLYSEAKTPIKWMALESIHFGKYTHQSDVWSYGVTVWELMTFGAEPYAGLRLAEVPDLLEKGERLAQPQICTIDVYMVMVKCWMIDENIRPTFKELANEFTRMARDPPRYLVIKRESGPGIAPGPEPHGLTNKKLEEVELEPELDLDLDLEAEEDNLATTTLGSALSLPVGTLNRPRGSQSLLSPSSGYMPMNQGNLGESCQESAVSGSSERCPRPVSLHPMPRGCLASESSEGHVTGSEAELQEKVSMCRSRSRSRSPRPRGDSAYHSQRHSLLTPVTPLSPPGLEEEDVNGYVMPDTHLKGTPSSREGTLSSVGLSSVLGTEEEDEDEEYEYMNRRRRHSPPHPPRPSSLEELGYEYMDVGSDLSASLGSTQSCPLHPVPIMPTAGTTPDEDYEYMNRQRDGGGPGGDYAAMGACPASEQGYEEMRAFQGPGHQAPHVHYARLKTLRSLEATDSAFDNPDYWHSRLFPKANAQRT

| Binder | cytotoxicity IC50 (nM), ATPlite, 7901 cells [1] | cytotoxicity IC50 (nM), ATPlite, HT-29 cells [1] | cytotoxicity IC50 (nM), ATPlite, MCF-7 cells [1] | cytotoxicity IC50 (nM), ATPlite, MDA-MB-453 cells [1] | cytotoxicity IC50 (nM), ATPlite, N87 cells [1] | cytotoxicity IC50 (nM), ATPlite, SK-BR-3 cells [1] | cytotoxicity IC50 (nM), ATPlite, SP2/0-HER3 cells [1] | EC50 (read off the curve) [2] |
| --- | --- | --- | --- | --- | --- | --- | --- | --- |
| B1 | 5.74 nM | 4.67 nM | 9.49 nM | 0.0401 nM | 1.91 nM | 0.159 nM | 0.486 nM |  |
| B2 |  |  |  |  |  |  |  | ~80 ng/mL |
